Test results: the supplement of paper PMC7877785
± gives the uncertainty stated by the source.

Assay: self-splicing fitness, log relative to wild type (ln ratio); higher = more splicing; Tetrahymena group I intron in knt gene, E. coli kanamycin selection, DiMSum; sequences stand for … in CUCUCU…GGAGGGAAAAGUUAUCAGGCAUGCACCUGGUAGCUAGUCUUUAAACCAAUAGAUUGCAUCGGUUUAAAAGGCAAGACCGUCAAAUUGCGGGAAAGGGGUCAACAGCCGUUCAGUACCAAGUCUCAGGGGAAACUUUGAGAUGGCCUUGCAAAGGGUAUGGUAAUAAGCUGACGGACAUGGUCCUAACCACGCAGCCAAGUCCUAAGUCAACAGAUCUUCUGUUGAUAUGGAUGCAGUUCACAGACUAAAUGUCGGUCGGGGAAGAUGUAUUCUUCUCAUAAGAUAUAGUCGGACCUCUCCUUAAUGGGAGCUAGCGGAUGAAGUGAUGCAACACUGGAGCCGCUGGGAACUAAUUUGUAUGCGAAAGUAUAUUGAUUAGUUUUGGAGUACUCGUGGUCG
How it was run: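 Pooled colonies went to amplicon sequencing on an Illumina HiSeq 2500 after six replicate transformations. The plates were LB agar with 100 μg/mL carbenicillin, 50 μM IPTG and 0.2% rhamnose, with or without 25 μg/mL kanamycin, incubated overnight at 37°C or 30°C. The E. coli BL21(DE3) library had all eight P1ex-region intron nucleotides randomised, the intron placed in the knt kanamycin-resistance gene on pET-22b(+). DiMSum fitness is the error-weighted combination of replicate fold changes, kanamycin against none, normalised to wild type.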

Sequence | self-splicing fitness (ln) (30 °C) | self-splicing fitness (ln) (37 °C)
CGAAAGCAAUAUUACGACCG | -0.423 ± 0.12 | -0.183 ± 0.15
CGAAAGCAAUAUUACGACGC | -1.81 ± 0.13 | 0.0494 ± 0.18
CGAAAGCAAUAUUACGAUGG | -0.519 ± 0.07 | 0.406 ± 0.1
CGAAAGCAAUAUUACGAUGU | -1.52 ± 0.074 | -1.15 ± 0.13
CGAAAGCAAUAUUACGAUUG | -0.934 ± 0.074 | -0.262 ± 0.1
CGAAAGCAAUAUUACGCCUA | -2.47 ± 0.24 | -0.736 ± 0.14
CGAAAGCAAUAUUACGCGCA | -0.957 ± 0.12 | -0.435 ± 0.13
CGAAAGCAAUAUUACGCGGA | -3.29 ± 0.26 | -1.83 ± 0.17
CGAAAGCAAUAUUACGGAUC | -2.95 ± 0.16 | -2.02 ± 0.15
CGAAAGCAAUAUUACGGCCA | -1.29 ± 0.14 | -1.23 ± 0.099
CGAAAGCAAUAUUACGGCCU | -1.32 ± 0.068 | -0.274 ± 0.082
CGAAAGCAAUAUUACGGGAC | – | -2.59 ± 0.32
CGAAAGCAAUAUUACGUAAU | -4.18 ± 0.18 | -2.3 ± 0.12
CGAAAGCAAUAUUACGUCAA | -3.45 ± 0.34 | -2.11 ± 0.25
CGACAGCAAUAUUACGAACG | -0.656 ± 0.11 | -0.117 ± 0.16
CGACAGCAAUAUUACGAUUC | -3.6 ± 0.14 | -0.756 ± 0.08
CGACAGCAAUAUUACGCCGC | – | -1.74 ± 0.36
CGACAGCAAUAUUACGCGCU | -3.43 ± 0.12 | -1.91 ± 0.13
CGACAGCAAUAUUACGCUAG | -3.79 ± 0.25 | -2.04 ± 0.16
CGACAGCAAUAUUACGCUCC | -1.44 ± 0.12 | 0.42 ± 0.13
CGACAGCAAUAUUACGCUCG | -3.34 ± 0.37 | -2.18 ± 0.24
CGACAGCAAUAUUACGCUGG | -3.13 ± 0.18 | -2.1 ± 0.17
CGACAGCAAUAUUACGGACU | -0.957 ± 0.072 | -0.875 ± 0.11
CGACAGCAAUAUUACGGUAA | -1.81 ± 0.13 | -1.44 ± 0.11
CGACAGCAAUAUUACGGUCU | -0.546 ± 0.039 | 0.187 ± 0.056
CGACAGCAAUAUUACGGUUU | -1.64 ± 0.058 | -0.714 ± 0.084

Sequence | self-splicing fitness (ln) (30 °C) | self-splicing fitness (ln) (37 °C)
CGACAGCAAUAUUACGUAUG | -1.26 ± 0.076 | -1.36 ± 0.1
CGACAGCAAUAUUACGUCGG | -1.83 ± 0.11 | -1.44 ± 0.15
CGACAGCAAUAUUACGUGCU | -4.84 ± 0.36 | -3.46 ± 0.23
CGACAGCAAUAUUACGUUAC | -3.39 ± 0.17 | -2.29 ± 0.2
CGACAGCAAUAUUACGUUGC | -3.9 ± 0.37 | -2.35 ± 0.36
CGACAGCAAUAUUACGUUUU | -3.62 ± 0.15 | -1.54 ± 0.11
CGAGAGCAAUAUUACGAAGU | – | -3.51 ± 0.39
CGAGAGCAAUAUUACGAGAA | – | -1.69 ± 0.43
CGAGAGCAAUAUUACGAGAG | -3.58 ± 0.35 | -0.712 ± 0.31
CGAGAGCAAUAUUACGAGCA | -1.62 ± 0.34 | –
CGAGAGCAAUAUUACGAGGU | -3.16 ± 0.21 | -2.02 ± 0.22
CGAGAGCAAUAUUACGAGUC | -3.99 ± 0.4 | -3.75 ± 0.34
CGAGAGCAAUAUUACGCACC | -1.83 ± 0.28 | -2 ± 0.34
CGAGAGCAAUAUUACGCGAA | -2.39 ± 0.27 | -1.89 ± 0.37
CGAGAGCAAUAUUACGCUCU | -3.65 ± 0.27 | -2.62 ± 0.3
CGAGAGCAAUAUUACGGACC | -3.73 ± 0.44 | –
CGAGAGCAAUAUUACGGACU | -1.89 ± 0.29 | -2.14 ± 0.38
CGAGAGCAAUAUUACGUAUC | -3.63 ± 0.25 | -1.87 ± 0.38
CGAGAGCAAUAUUACGUCCA | – | -3.02 ± 0.43
CGAGAGCAAUAUUACGUUAC | -4.23 ± 0.28 | -2.29 ± 0.24
CGAUAGCAAUAUUACGAAAC | -1.44 ± 0.32 | –
CGAUAGCAAUAUUACGACAC | -3.23 ± 0.49 | –
CGAUAGCAAUAUUACGACAU | -3.167 ± 0.021 | -1.95 ± 0.035
CGAUAGCAAUAUUACGACCG | -1.44 ± 0.21 | 0.156 ± 0.24
CGAUAGCAAUAUUACGCAAG | -1.97 ± 0.13 | -0.614 ± 0.11
